The supplement of paper PMC12764529
± gives the half width of the 95% confidence interval.

assay: folding stability dG unfold from chymotrypsin proteolysis; higher = more stable
In short: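 Digests were run with trypsin and chymotrypsin at 11 concentrations in threefold dilutions, plus a no-protease condition, on designed mini-proteins in a PA-tagged cDNA display construct. The mini-proteins were under 80 residues, had no cysteine, and were kept only when AlphaFold2 dimer inter-PAE was above 15. After sequencing, Bayesian fitting of the counts gave K50, from which unfolding free energy was derived against a sequence-predicted unfolded-state K50 and a shared folded-state K50, per protease or combined.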

For “SAGGKKKKREIEIQIPVPDEEMKKNGMDPSEFAEELAKELQSLLPPGFEDIDLDVEPHPNGWPRIKIESAGG [r13_271_TrROS]”, which “folding stability dG unfold” value is on record?
Its value is -1.17 ± 0.18 kJ/mol.

For “SAGGGSMYDPETGTLRDENGNFFRTEEKKIPEVVIELPIELPDNTTLVIPVKFRTEEEAEKAVEELLSAGGS [r8_440_JUSTAS]”, which “folding stability dG unfold” value is on record?
Its value is 0.112 ± 0.962 kJ/mol.

With “SAGSETVLKTTTEPRTEPDSEVETTTEVYPDGKRITRTTTTYPNPGEGNPATPVTTTTTTVTELPPNELSAG [r5_224_JUSTAS]” as the sequence, how does the “folding stability dG unfold” value read?
The value was -1.58 ± 0.502 kJ/mol.

Which “folding stability dG unfold” value does the source give for “SAGMITRTITTVDPVDPALVAAISPDLVFPDGSTVSRDGDRLVITTPVTLALPPSPDPAGQLVLPTAASAGG [r19_148_JUSTAS]” here?
The value was 2.02 ± 0.364 kJ/mol.

For “SAGGSAGGSAGGRIRLPGWEIEDVKVYETGDKPYYTITYKNPNGKPKKMLMPADDLDDFSAGGSAGGSAGGS [r10_645_TrROS]”, which “folding stability dG unfold” value is on record?
The value was -0.905 ± 2.55 kJ/mol.

With “SAGGAPVHLDTTATTIEPLPTGGPVLRVETRFPDGSTRTGDFASREELLARLEASPDAATIRLAAVASAGGS [r16_757_JUSTAS]” as the sequence, how does the “folding stability dG unfold” value read?
The value was 3.75 ± 0.234 kJ/mol.

With “SAGSIQVSESALAPGYSLYTITIPYQSIEDAKKLVEEIVSKRFSVPAEIIETKVDPNTGVVTFTVKVPPSAG [r5_810_JUSTAS]” as the sequence, how does the “folding stability dG unfold” value read?
The value was 22.2 ± 0.368 kJ/mol.

With “SAGGSAGGSAGGGPNIRTVTETTVEPTPDSVVTTRPVYYVDPSGTVLGSETTTTVDPNTTSAGGSAGGSAGG [r7_812_JUSTAS]” as the sequence, how does the “folding stability dG unfold” value read?
Its value is 0.75 ± 0.142 kJ/mol.

Which “folding stability dG unfold” value does the source give for “SAGGSAGGSAGGPRVGVVRELPDDSRVALLEIEETLTSPGPDGTPRSRPFRAVFVVPLGSAGGSAGGSAGGS [r10_718_TrMRF]” here?
The value was 2.89 ± 1.09 kJ/mol.

For “SAGGSAGGSATLTVEVLEEVVEPVPDPSLTPVRLLVRDPANGELREAVVIRDPRRGALRLESAGGSAGGSAG [r3_1_JUSTAS]”, which “folding stability dG unfold” value is on record?
Its value is 0.207 ± 0.92 kJ/mol.

Which “folding stability dG unfold” value does the source give for “SAGGSAGGSAGGMVKTTTQVSIDPNSDYRYTTTTTTVVDANGKPLATQTTLTVTKLAGTSSAGGSAGGSAGG [r7_616_JUSTAS]” here?
The value was -0.522 ± 1.42 kJ/mol.

For “SAGGMEEIRELLREGKIDEVVERLKELGYEDVKITPIPDKPVVKIEVVRYDPVTGKPTKFTLTIPLEPSAGG [r13_359_TrMRF]”, which “folding stability dG unfold” value is on record?
The value was 22.1 ± 0.46 kJ/mol.

Which “folding stability dG unfold” value does the source give for “SMSIKRARLRPEEIEAEIAALEAQGLRVKREPLEVTPVEVPLKLPDGTPRRVEVVEVVFRLELTPLDQPPSA [r9_991_JUSTAS]” here?
The value was -1.81 ± 2.01 kJ/mol.

Which “folding stability dG unfold” value does the source give for “SAGGSAGGSAGGPMRLVRIPLDDGKIKVVPIPPGEAIPFENDNGEIYFMVTDDKIEIMPSAGGSAGGSAGGS [r10_817_TrROS]” here?
Its value is 0.756 ± 1.84 kJ/mol.

For “SAGGSDPVSVSTEGGNTYVTVGDTPVLRLSKGKPEPPVLVTLPNGEVIEMPRSEALARDPSTIEFTPGSAGG [r13_802_JUSTAS]”, which “folding stability dG unfold” value is on record?
Its value is 1.54 ± 0.176 kJ/mol.

For “SAGGSAMPSPITVTTFPGGTARLVEFPDGSTAVVEIVEEGPERVLVTTTTPPDGVPTTSVVPAAELSAGGSA [r15_941_JUSTAS]”, which “folding stability dG unfold” value is on record?
Its value is -0.275 ± 0.301 kJ/mol.

For “SAKVHIPFPPGMPPKQMRNMVKNALREQQNNGKEPDKITIHMPPDQRPIKDWLKEAGLPPDNVKWEPWPSAG [r14_589_TrROS]”, which “folding stability dG unfold” value is on record?
Its value is -1.76 ± 2.3 kJ/mol.

With “SAGGSAMKTSLSRSTSTDPSDPNVTYKTTTTFLPDNTVLTNTTTTTRVGSSDVTTTTTTTTPIPAASAGGSA [r15_553_JUSTAS]” as the sequence, how does the “folding stability dG unfold” value read?
The value was 1.71 ± 0.753 kJ/mol.

Which “folding stability dG unfold” value does the source give for “SAGGSAGGSAGGNDPNGQEKEIPIDPGQRADEIAEEFKDEFNPDHVEIEASEEGYAEVRVSAGGSAGGSAGG [r7_273_TrROS]” here?
Its value is 3.71 ± 0.184 kJ/mol.

Which “folding stability dG unfold” value does the source give for “SAGGSAGGSAGGSAVTSDGTEVEPDQLVEEATLTPPDGEPVRLRVYAVPDSDEVVTEAGSAGGSAGGSAGGS [r4_13_TrMRF]” here?
The value was 2.89 ± 1.09 kJ/mol.

Which “folding stability dG unfold” value does the source give for “SAGGSAGGSAGGYDPNDKPVVEVPIELPPNDKKNPDRMKENAEEIANPLQEKGKPDRIVSAGGSAGGSAGGS [r10_723_TrROS]” here?
Its value is 3.8 ± 0.46 kJ/mol.

For “SAGGSAGGSAGGSMKTITFTDPAEIAAAIEEAEKEGVEEVVLLTPEGKTRVIPKGVPLPSAGGSAGGSAGGS [r4_260_JUSTAS]”, which “folding stability dG unfold” value is on record?
The value was 2.16 ± 0.347 kJ/mol.

For “SAGGSASPELQKRIKDALQEENPDYPVTVDEVDPKNNTIMITFNSPWHQKRIEKALKEDGIKITIYSAGGSA [r15_196_TrROS]”, which “folding stability dG unfold” value is on record?
The value was -0.215 ± 1.59 kJ/mol.

For “PPVGPDAPVTPTTTPTPSGKTVTTTDRPLRREVTTTDPSTGTYTVTLTETDAAGRVLATRTETLSPEEVAAS [r1_380_JUSTAS]”, which “folding stability dG unfold” value is on record?
The value was -0.33 ± 1.51 kJ/mol.

Which “folding stability dG unfold” value does the source give for “SGMPPVSVSSIEPVSVSPDGTSRTFRAPLTTPSGEPVTYTGPVSEILKRVEEEGWGPTASAPGGLVEVRDSA [r9_1078_JUSTAS]” here?
The value was -1.54 ± 0.502 kJ/mol.

For “SAMIVTEKEDPATNTTLVTTTEIYPDSITVTTTTITKSGEILTESPSTTTIPLGSPLGPENKAKNIALSSAG [r14_930_JUSTAS]”, which “folding stability dG unfold” value is on record?
Its value is -0.77 ± 0.586 kJ/mol.

For “SAGGTIEEIRDQLKNMPPGYHVDLKIPNGRSHSFGSLEDIEDLPITNPNGRKIEITEVQPMPPPDEQSAGGS [r16_680_TrROS]”, which “folding stability dG unfold” value is on record?
Its value is 0.816 ± 0.669 kJ/mol.

For “SAGGSAGGSAMKITINVSPDEPGVTIEEAKKRLAPHPVEKVTQTPLPSNSLVVTVDVSPEASAGGSAGGSAG [r3_335_JUSTAS]”, which “folding stability dG unfold” value is on record?
The value was -1.91 ± 0.837 kJ/mol.

With “SSAEEIARRLAEELNLDRVEVRVERLRLEPAEAPEEVRVVRPAPPPPPVTEEERRRRPEERRRRLSEEELSA [r9_724_TrROS_Hall]” as the sequence, how does the “folding stability dG unfold” value read?
The value was -1.1 ± 1.34 kJ/mol.

For “SAGGSAGGSAGGIYIPLEDLEKNGLGFEELVEKLGVDVEIEVLETEPGKPVAKIRPKLGSAGGSAGGSAGGS [r10_855_TrMRF]”, which “folding stability dG unfold” value is on record?
Its value is 4.05 ± 0.113 kJ/mol.

Which “folding stability dG unfold” value does the source give for “SAGGEPRLGRVLLDIDIAVDPERAEREEDREEALERALEIAERAEARLRELDPDVPVVVNIRLLDVGSAGGS [r8_183_TrMRF]” here?
Its value is 2.41 ± 0.13 kJ/mol.

Which “folding stability dG unfold” value does the source give for “SAGGSAGGSAGIKKQRNPDGQERETIEIRTKNQPIPITFPPDDNADDLANNFGLPADDIRSAGGSAGGSAGG [r11_1039_TrROS]” here?
The value was 2.85 ± 0.163 kJ/mol.

With “SAGGSAGGSAKTVEIPLKDLKPDKDGKYNYDEIQDQIKEKFPPNGIDKVDIDTPRQIWDQFRSAGGSAGGSA [r18_72_TrROS]” as the sequence, how does the “folding stability dG unfold” value read?
Its value is 0.656 ± 0.879 kJ/mol.

With “SAGGSAGGSAGVKIRMRGPNGSESKIPVPPDAIQDKFPPGDPIRIPIHRHNNNFHMDIEPVSAGGSAGGSAG [r3_86_TrROS]” as the sequence, how does the “folding stability dG unfold” value read?
The value was 1.48 ± 0.18 kJ/mol.

With “SAGGSAGGSALPPGEPVEFPWRIKMGGEEHDVKRTVYRDPDGNVKLNIEIPMPPGNFEIEPVSAGGSAGGSA [r18_428_TrROS]” as the sequence, how does the “folding stability dG unfold” value read?
Its value is 0.862 ± 0.92 kJ/mol.

Which “folding stability dG unfold” value does the source give for “SGMTPVSVSRKFTSTFPNGTPVSDPGGLVVLVPEPPPPPYVHLSPEEVEAARAAAAAAGSPLTEADIRASSA [r9_487_JUSTAS]” here?
Its value is 0.685 ± 0.879 kJ/mol.

With “SAGGSVLVTLTNPADGTPVTLPTPAEEAEAILASGDTAALEARHPGRPVAAVTVDPVSPRPPVPPGLASAGG [r13_629_JUSTAS]” as the sequence, how does the “folding stability dG unfold” value read?
The value was 0.931 ± 0.397 kJ/mol.

For “SAGGSAGGSAGGVRPNPNGQYEVTVTIRNPGGGNKREKTINATPDEIEELQDQGFEIEPSAGGSAGGSAGGS [r10_749_TrROS]”, which “folding stability dG unfold” value is on record?
Its value is -4.54 ± 1.46 kJ/mol.

For “SAGGSALTIKVKDPEDIKDLEIQVYLPDGRPMLMKIEVQRDEGPPYVKIKAENPGNGKKRKETFPFSAGGSA [r15_1006_TrROS]”, which “folding stability dG unfold” value is on record?
Its value is 0.104 ± 2.22 kJ/mol.

Which “folding stability dG unfold” value does the source give for “SAGGSAGGSAGGPIKIKHNDGVEITIPADNVRSVDTNPGPGYIKITFPGNGQEFQIPIDSAGGSAGGSAGGS [r10_200_TrROS]” here?
Its value is 0.0409 ± 0.13 kJ/mol.

With “SAGGSAGGSAGGMKITLKVKKPDGTTTTITVDIDESKIEEIKEEIAPKGYEVEEAEIELESAGGSAGGSAGG [r7_159_JUSTAS]” as the sequence, how does the “folding stability dG unfold” value read?
Its value is 2.67 ± 0.502 kJ/mol.

For “SAGGSAGGSAGGMTETVTLTEVGVTTKTAPLPEGPLTTTPTVTVDRVITLPPSSPAALALSAGGSAGGSAGG [r7_889_JUSTAS]”, which “folding stability dG unfold” value is on record?
Its value is -1.07 ± 1.76 kJ/mol.

Which “folding stability dG unfold” value does the source give for “SAGGSAGGSAGGSSSMTSEKVTEKTEFDKETGKKYKIITQRISPSSVGNSSLKTEIKLESAGGSAGGSAGGS [r10_535_JUSTAS]” here?
Its value is -0.203 ± 1.05 kJ/mol.

Which “folding stability dG unfold” value does the source give for “SAGGSARVVTAVARHPNSTEATLTVTDSGAAGGTSEITFASPEDLLAAIRNLPASVASVSVRPLLPSAGGSA [r15_589_TrMRF]” here?
Its value is 3.37 ± 0.117 kJ/mol.

For “SAGGSAGGSAGMTSTVTEVRPGSDSWTVTVTYSENSSTKTQTLTVPAGPTVRSGLPSVVSSAGGSAGGSAGG [r11_921_JUSTAS]”, which “folding stability dG unfold” value is on record?
Its value is 0.876 ± 0.628 kJ/mol.

For “SAGGPKVVKGKKVEKVELEVGKLPDGVELVKVKVRSKEVDKEFTFTFEPGQDLGEFGKATGFDIGVESAGGS [r16_676_TrMRF]”, which “folding stability dG unfold” value is on record?
Its value is 2.31 ± 0.669 kJ/mol.

With “SAGSVTVEVFGPGRLLATYTLDDTTTTVAVPPEPVRVRIRSPGDDAEATADADPATGVVTVTVPADLGLSAG [r5_469_JUSTAS]” as the sequence, how does the “folding stability dG unfold” value read?
The value was 2.84 ± 0.209 kJ/mol.

Which “folding stability dG unfold” value does the source give for “SAGGKKTVEIPIWMPYDDAKNIAKEAVEEAAASNDNVTVTIEIWQWEPDPNGKPEWQPIGKAEIKVPPSAGG [r13_974_TrROS]” here?
Its value is -0.0546 ± 0.268 kJ/mol.

For “SMDVVTEVTVKLPYRDASHHHHLNIKVTRTISSKDPSLSPEALPPEVLAEEAKKEAIEELKKKGIPEEFLSA [r9_516_JUSTAS]”, which “folding stability dG unfold” value is on record?
Its value is -1.45 ± 2.68 kJ/mol.
